B1: minF1; a variant is named by its letters at N, in order (parent)
chain: GAGACCGCAACTGAAAAGTTGTTNNNNAANNNNGGNTNNATTTCTGCACGTAGAAGCAAAAGGC

Variants of: B1
Test: fraction ligated after 30 min (ligated reads / total reads); higher = more ligase activity
Details: with F1*subA RNA substrate (template-directed ligation), 42 °C
Protocol: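 Chip-synthesised pool of minF1 ligase ribozyme variants (single and double substitutions, single to quadruple deletions, bulge and P2 designed variants) was transcribed with T7 and reacted as a pool with excess substrate F1*subA for 30 min at 42 C in 50 mM EPPS pH 8.5, 25 mM MgCl2. Ligated and unligated RNAs were separated by PAGE, barcoded by RT and deep sequenced; fraction ligated = ligated reads / total reads, relative activity = FL / FL of wild-type minF1 (0.76); sequencing FL correlated with PAGE (R2 = 0.98). Sequences are the DNA template of the ribozyme.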

Row | Variant | fraction ligated
1 | ATAAGATGTGA | 0.00253
2 | AGAAGGATGTA A29T | 0.00434
3 | ATAAGGAGTGA A29T | 0.00469
4 | ATCAAAATGTA A28G | 0.0033
5 | ATCAAAGAGTA A28G G34T | 0.00276
6 | ATAGAGGAGTT G34T T37G | 0.00132
7 | AGAAGATGTGA T23C A29G | 0.00313
8 | AGAAGATGTGA T23C A29T | 0.00701
9 | ATAGATGGGTT G34T T37G A40G | 0.000495
10 | CGAAGGATGTA A29T | 0.00492
11 | ATAATGGATGA | 0.00189
12 | ATAGAGGGTGA | 0.00176
13 | ATAAGGAGTGA | 0.000696
14 | ATAGTGGTGTA | 0.0012
15 | ATAGTGGTGTG | 0.00637
16 | CGAAGATGTGA T23A A29G | 0.00107
17 | CGAAGATGTGA T23A A29T | 0.00299
18 | AGAAGGATGTG A29T | 0.00505
19 | TGAAGGATTGA T23A A29T | 0.00566
20 | ATAGATGGGTT G34A T37G | 0.000508
21 | AGAAGGAGTGA T23A A29T | 0.00185
22 | ATAATGGTTGA | 0.00319
23 | ATAGTGGTTGA | 0.0023
24 | TGAAGGATGTA T23A A29T | 0.00285

Row | Variant | fraction ligated
25 | TGAAGGATGTA A29T | 0.00266
26 | AGAAGATGTGA T23A A29T | 0.00161
27 | AGAAGATGTGA T23A A29G | 0.00362
28 | AGAAGGATTGA T23C A29T | 0.00646
29 | ATAATGATTGA | 0.00291
30 | ATAGATGTGTG | 0.00629
31 | ATAGATGTGTA | 0.00402
32 | ATAGGGTGTGA | 0.00288
33 | ATAAGATGTGA A28T A29G | 0.0107
34 | ATAAGGATTGA A29T | 0.00367
35 | ATCAAAGAGTG A28G | 0.00384
36 | ATAGATATGTA | 0.00365
37 | ATAGATATGTG | 0.013
38 | ATCAAAAGTGA A28G | 0.00266
39 | ATAGTGATGTA | 0.00203
40 | ATAGTGATGTG | 0.00732
41 | ATAATGAGTGA | 0.00461
42 | ATAGATGAGTA G34T | 0.0034
43 | ATAGGGATGTA A29T | 0.00166
44 | AGAAGATGTGA T23C A28T A29G | 0.00411
45 | ATAGGGATTGA | 0.00436
46 | TGAAGGTGTGA T23A A29T | 0.00263
47 | CGAAGGTGTGA T23A A29T | 0.000502
48 | ATAGAGGAGTT G34T T37G A40G | 0.00121

Row | Variant | fraction ligated
49 | ATAGATGGGTG G34T | 0.00668
50 | ATAGATGGGTG G34A | 0.00708
51 | CGAAGATGTGA A29T | 0.00363
52 | ATAGGATGTGA | 0.00396
53 | TGAAGATGTGA T23A A28T A29G | 0.00603
54 | ATAGGGATTGA A29T | 0.0025
55 | AGAAGGATGTG T23C A29T | 0.00819
56 | AGAAGGTGTGA T23C A29T | 0.00383
57 | ATAGATATTGA | 0.00398
58 | ATAAGGATGTG | 0.00567
59 | ATAAGGATGTA | 0.00287
60 | ATAGAGGAGTA G34T | 0.00281
61 | AGAAGGATGTA T23C A29T | 0.00442
62 | ATAGAGATGTA | 0.00327
63 | ATAGAGATGTG | 0.00764
64 | ATAGGGAGTGA A29T | 0.00713
65 | AGAAGATGTGA A29T | 0.00448
66 | ATAGATTGTGA | 0.00167
67 | AGAAGGTGTGA T23A A29T | 0.00188
68 | ATAGTGGAGTG G34T | 0.0109
69 | AGAAGGTGTGA A29T | 0.0036
70 | ATAGGATGTGA A29T | 0.00303
71 | ATAGGATGTGA A29G | 0.00633
72 | ATCAAAGAGTA A28G | 0.0017

Row | Variant | fraction ligated
73 | ATAGGGAGTGA | 0.00238
74 | ATAGGGATGTG A29T | 0.012
75 | ATAGTGGAGTT G34T T37G | 0.00164
76 | ATCAAAATGTG A28G | 0.00629
77 | CGAAGGATGTA T23A A29T | 0.0054
78 | AGAAGGATGTG T23A A29T | 0.00517
79 | ATAGATGGGTT G34A G35T T37G | 0.0013
80 | ATAGAGGAGTG | 0.00449
81 | ATAGAGGAGTA | 0.00256
82 | ATCAAAGAGTT A28G G34T T37G | 0.00139
83 | ATCAAAATTGA A28G | 0.00208
84 | TGAAGGATGTG A29T | 0.00863
85 | CGAAGGAGTGA T23A A29T | 0.00498
86 | ATAGATGATGA | 0.00363
87 | AGAAGGATTGA A29T | 0.00498
88 | CGAAGATGTGA T23A A28T A29G | 0.00787
89 | ATAAGGTGTGA A29T | 0.00316
90 | ATAAGGATGTA A29T | 0.00345
91 | TGAAGATGTGA T23A A29G | 0.00128
92 | TGAAGATGTGA T23A A29T | 0.00202
93 | TGAAGGTGTGA A29T | 0.00178
94 | ATAGGATGTGA A28T A29G | 0.0105
95 | ATAGTGTGTGA | 0.0025
96 | ATAGAGTGTGA | 0.00554

Row | Variant | fraction ligated
97 | ATAGAGGTTGA | 0.00247
98 | ATAGGGATGTG | 0.00618
99 | ATAGGGATGTA | 0.0024
100 | ATAGAATGTGA | 0.00417
101 | ATAGGGTGTGA A29T | 0.00231
102 | ATAGAGATTGA | 0.0019
103 | ATAATGGAGTT G34T T37G | 0.00161
104 | ATAGATGGGTA G34T | 0.00288
105 | ATAGATGGGTA G34A | 0.00325
106 | ATAGATAGTGA | 0.00268
107 | AGAAGATGTGA T23A A28T A29G | 0.00449
108 | TGAAGGATTGA A29T | 0.0036
109 | ATAATGGAGTA G34T | 0.00307
110 | TGAAGGAGTGA T23A A29T | 0.00234
111 | ATAGATGGGTT G34A T37G A40G | 0
112 | TGAAGGAGTGA A29T | 0.000652
113 | ATAAGGATTGA | 0.0033
114 | ATAAGGTGTGA | 0.00238
115 | ATAGATGGGTG | 0.00885
116 | ATAGATGGGTA | 0.00171
117 | ATAGATGGGGT G34A G35T T37G A40T | 0.00172
118 | CGAAGGATGTG T23A A29T | 0.0123
119 | AGAAGGAGTGA T23C A29T | 0.0019
120 | ATAGTGGATGA | 0.00362

Row | Variant | fraction ligated
121 | ATAGTGATTGA | 0.00291
122 | ATAATGGGTGA | 0.00329
123 | ATAATGTGTGA | 0.00221
124 | ATAATGGTGTG | 0.00419
125 | ATAATGGTGTA | 0.00235
126 | ATAGATGGGTT G34T T37G | 0.00071
127 | TGAAGGATGTG T23A A29T | 0.00766
128 | AGAAGGATGTA T23A A29T | 0.00442
129 | ATCAAAGAGTG A28G G34T | 0.00562
130 | ATAGTATGTGA | 0.00386
131 | ATAAGATGTGA A29T | 0.00321
132 | ATAAGATGTGA A29G | 0.00765
133 | CGAAGGATTGA T23A A29T | 0.0076
134 | ATAATATGTGA | 0.00335
135 | ATAGATGAGTA | 0.00311
136 | ATAGATGAGTG | 0.0071
137 | ATAATGATGTA | 0.00361
138 | ATAATGATGTG | 0.00571
139 | ATAGATGAGTT G34T T37G A40G | 0.00153
140 | ATAGTGGAGTG | 0.00518
141 | ATAGTGGAGTA | 0.00346
142 | CGAAGGATGTG A29T | 0.0152
143 | ATAGAGGATGA | 0.00219
144 | ATAAGGATGTG A29T | 0.00947

Row | Variant | fraction ligated
145 | ATAGTGGGTGA | 0.00334
146 | ATAGTGAGTGA | 0.00282
147 | ATAGTGGAGTA G34T | 0.00645
148 | ATAGTGGAGTT G34T T37G A40G | 0.000271
149 | TGAAGATGTGA A29T | 0.00283
150 | ATAGATGAGTT G34T T37G | 0.00193
151 | ATAGATGTTGA | 0.00174
152 | ATAGAGGTGTA | 0.00141
153 | ATAGAGGTGTG | 0.00428
154 | ATAATGGAGTG G34T | 0.0113
155 | ATAATGGAGTG | 0.00646
156 | ATAATGGAGTA | 0.00371
157 | ATAGATGGGTT G34A G35T T37G A40G | 0.00103
158 | AGAAGGAGTGA A29T | 0.00436
159 | CGAAGGATTGA A29T | 0.00943
160 | CGAAGGAGTGA A29T | 0.00331
161 | ATAGATGAGTG G34T | 0.00408
162 | ATAATGGAGTT G34T T37G A40G | 0.00113
163 | CGAAGGTGTGA A29T | 0.00384
164 | ATAGAGAGTGA | 0.000691
165 | AGAAGGATTGA T23A A29T | 0.00594
166 | ATAGATGGTGA | 0.00397
167 | ATAGAGGAGTG G34T | 0.0028
